Experimental findings from the supplement of paper PMC9112550, “Optimization of the antimicrobial peptide Bac7 by deep mutational scanning” (BMC Biology, 2022) are described below.
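Note: peptides expressed intracellularly from a pBAD plasmid library in pooled LB shake-flask culture, induced with 0.3% L-arabinose, DNA abundance read by NGS, three biological replicates, DESeq2 with apeglm shrinkage.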

This data set relates to Escherichia coli TOP10. The data set can be described thus: shrunken log2 fold change of peptide-encoding DNA abundance (4.5 h post-induction vs induction); higher = less antimicrobial activity (less host growth inhibition). The following applies: time post-induction: 4.5 h; library: site-saturation at positions 5, 18, 19, 20.
With RRIRKRPPRLPRPRPRPCWIPRP, the “shrunken log2 fold change” value is -0.0557. Then RRIRFRPPRLPRPRPRPLELPRP, with 0.0344; and RRIRHRPPRLPRPRPRPAYVPRP, with -0.102. The figure for RRIRCRPPRLPRPRPRPRCNPRP is 0.00442; for RRIRFRPPRLPRPRPRPWRRPRP it is 0.0103; for RRIRWRPPRLPRPRPRPHMLPRP it is -0.954. The figure for RRIRERPPRLPRPRPRPDGLPRP is 0.0424. As to RRIRQRPPRLPRPRPRPRHFPRP, the “shrunken log2 fold change” value was 0.0257. Then RRIRFRPPRLPRPRPRPDFWPRP, with 0.0889; and RRIRYRPPRLPRPRPRPYLSPRP, with -0.274. Take RRIRMRPPRLPRPRPRPPINPRP: the “shrunken log2 fold change” value was -0.195. As for RRIRVRPPRLPRPRPRPVRNPRP, the “shrunken log2 fold change” value was determined as 0.105.

With RRIRPRPPRLPRPRPRPTCTPRP, the “shrunken log2 fold change” value turned out to be 0.104. Then RRIRARPPRLPRPRPRPQVSPRP, with -0.156. The figure for RRIRCRPPRLPRPRPRPSDRPRP is -0.473; for RRIRPRPPRLPRPRPRPKTHPRP it is -0.0419; for RRIRSRPPRLPRPRPRPKPPPRP it is 0.292. Regarding RRIRWRPPRLPRPRPRPRRTPRP, the “shrunken log2 fold change” value turned out to be 0.0983. In the case of RRIRNRPPRLPRPRPRPGSFPRP, the “shrunken log2 fold change” value was -0.0339.

Take RRIRCRPPRLPRPRPRPAAAPRP: the “shrunken log2 fold change” value worked out at 0.528. Then RRIRMRPPRLPRPRPRPLVNPRP, with 0.0639. The figure for RRIRTRPPRLPRPRPRPDMNPRP is -0.0432; for RRIRWRPPRLPRPRPRPKLRPRP it is 0.132; for RRIRGRPPRLPRPRPRPQDCPRP it is 0.0863. Then RRIRERPPRLPRPRPRPFGFPRP, with -0.335; and RRIRLRPPRLPRPRPRPLSKPRP, with 0.0272; and RRIRDRPPRLPRPRPRPDHQPRP, with -0.0643. For the sequence RRIRLRPPRLPRPRPRPPSGPRP, the “shrunken log2 fold change” value was 0.0718.

In the case of RRIRNRPPRLPRPRPRPEAGPRP, the “shrunken log2 fold change” value is -0.0775. Then RRIRTRPPRLPRPRPRPHTLPRP, with -0.792; and RRIRWRPPRLPRPRPRPVQCPRP, with 0.039; and RRIRFRPPRLPRPRPRPQFEPRP, with -0.19. Then RRIRKRPPRLPRPRPRPMEPPRP, with 0.0318; and RRIRDRPPRLPRPRPRPFAQPRP, with 0.0821. For the sequence RRIRQRPPRLPRPRPRPNNDPRP, the “shrunken log2 fold change” value was -0.624. Take RRIRYRPPRLPRPRPRPSKEPRP: the “shrunken log2 fold change” value was -0.0167. The figure for RRIRRRPPRLPRPRPRPSGLPRP is 0.00401; for RRIRPRPPRLPRPRPRPWMWPRP it is 0.0296; for RRIRPRPPRLPRPRPRPLASPRP it is 0.104.

For the sequence RRIRARPPRLPRPRPRPLWGPRP, the “shrunken log2 fold change” value stood at 0.308.

Turning to RRIRIRPPRLPRPRPRPCTRPRP, the “shrunken log2 fold change” value is 0.0316. The figure for RRIRDRPPRLPRPRPRPKMYPRP is 0.0269; for RRIRIRPPRLPRPRPRPNGPPRP it is 0.00676.

In the case of RRIRWRPPRLPRPRPRPDQFPRP, the “shrunken log2 fold change” value is -0.0202. For RRIRSRPPRLPRPRPRPKDYPRP, the “shrunken log2 fold change” value is -0.128.

As for RRIRSRPPRLPRPRPRPKPDPRP, the “shrunken log2 fold change” value is 0.22. The figure for RRIRNRPPRLPRPRPRPTAQPRP is 0.136; for RRIRGRPPRLPRPRPRPPWYPRP it is 0.26; for RRIRWRPPRLPRPRPRPYENPRP it is -0.19. The figure for RRIRGRPPRLPRPRPRPARYPRP is 0.339; for RRIRMRPPRLPRPRPRPTLDPRP it is 1.35; for RRIRQRPPRLPRPRPRPTKGPRP it is -0.0785. The figure for RRIRLRPPRLPRPRPRPKHEPRP is 0.053; for RRIRWRPPRLPRPRPRPRYGPRP it is 0.134; for RRIRLRPPRLPRPRPRPHLDPRP it is -0.0911.

Consider RRIRLRPPRLPRPRPRPDPCPRP, for which the “shrunken log2 fold change” value is -0.0403.

In the case of RRIRARPPRLPRPRPRPVPTPRP, the “shrunken log2 fold change” value is 0.57. Then RRIRPRPPRLPRPRPRPYFVPRP, with -0.488. The figure for RRIRGRPPRLPRPRPRPKWPPRP is 0.322. Then RRIRHRPPRLPRPRPRPCSPPRP, with -0.232; and RRIRERPPRLPRPRPRPKIIPRP, with 0.357. For RRIRPRPPRLPRPRPRPVEYPRP, the “shrunken log2 fold change” value was -0.156. The figure for RRIRKRPPRLPRPRPRPNEWPRP is 0.0498. The figure for RRIRVRPPRLPRPRPRPAPEPRP is 0.514; for RRIRPRPPRLPRPRPRPHGHPRP it is 0.0412; for RRIRLRPPRLPRPRPRPYFVPRP it is -0.65.

As to RRIRWRPPRLPRPRPRPTIQPRP, the “shrunken log2 fold change” value turned out to be 0.0488. On to RRIRGRPPRLPRPRPRPECYPRP, for which the “shrunken log2 fold change” value stood at 0.25. The figure for RRIRPRPPRLPRPRPRPSYHPRP is -0.641.

With RRIRIRPPRLPRPRPRPKNFPRP, the “shrunken log2 fold change” value is -0.0927.

In the case of RRIRERPPRLPRPRPRPPLAPRP, the “shrunken log2 fold change” value worked out at 0.433. The figure for RRIRPRPPRLPRPRPRPMDGPRP is 0.214; for RRIRTRPPRLPRPRPRPPGPPRP it is 0.53. Then RRIRCRPPRLPRPRPRPAANPRP, with 0.0789.

For RRIRNRPPRLPRPRPRPHASPRP, the “shrunken log2 fold change” value came out at 0.065.

For RRIRGRPPRLPRPRPRPTYTPRP, the “shrunken log2 fold change” value was determined as 0.249. Then RRIRYRPPRLPRPRPRPHANPRP, with -0.16. Then RRIRNRPPRLPRPRPRPTYCPRP, with -0.276; and RRIRTRPPRLPRPRPRPKKNPRP, with 0.409. RRIRRRPPRLPRPRPRPKYFPRP: the “shrunken log2 fold change” value came out at 0.162. The figure for RRIRMRPPRLPRPRPRPDNGPRP is -0.0901; for RRIRKRPPRLPRPRPRPFQNPRP it is -0.0235. Then RRIRQRPPRLPRPRPRPYDYPRP, with -0.133. Consider RRIRHRPPRLPRPRPRPAMQPRP, for which the “shrunken log2 fold change” value is 0.325. Turning to RRIRPRPPRLPRPRPRPQSLPRP, the “shrunken log2 fold change” value was -0.288.

Regarding RRIRYRPPRLPRPRPRPGASPRP, the “shrunken log2 fold change” value is -0.313. The figure for RRIRMRPPRLPRPRPRPRGQPRP is 1.25. Then RRIRERPPRLPRPRPRPMVMPRP, with -0.368.

Take RRIRPRPPRLPRPRPRPKMIPRP: the “shrunken log2 fold change” value is -0.0706. Then RRIRRRPPRLPRPRPRPGWEPRP, with 0.393; and RRIRRRPPRLPRPRPRPTRFPRP, with 1.08; and RRIRPRPPRLPRPRPRPVDLPRP, with 0.036.

RRIRLRPPRLPRPRPRPEHHPRP: the “shrunken log2 fold change” value is -0.156. The figure for RRIRCRPPRLPRPRPRPVRPPRP is 0.504. The figure for RRIRRRPPRLPRPRPRPMKRPRP is 0.0474; for RRIRGRPPRLPRPRPRPARAPRP it is 1.03; for RRIRMRPPRLPRPRPRPSHHPRP it is -0.171.

Consider RRIRFRPPRLPRPRPRPGKKPRP, for which the “shrunken log2 fold change” value came out at 0.0937. The figure for RRIRGRPPRLPRPRPRPWGIPRP is 0.0344; for RRIRMRPPRLPRPRPRPGEYPRP it is 0.434. Then RRIRHRPPRLPRPRPRPHHKPRP, with -0.556. The figure for RRIRPRPPRLPRPRPRPPDNPRP is 0.246; for RRIRGRPPRLPRPRPRPDEPPRP it is 1.37; for RRIRMRPPRLPRPRPRPGNMPRP it is -0.331. With RRIRYRPPRLPRPRPRPWWLPRP, the “shrunken log2 fold change” value was -0.0627.

With RRIRVRPPRLPRPRPRPTPCPRP, the “shrunken log2 fold change” value is -0.147. For RRIRDRPPRLPRPRPRPCQMPRP, the “shrunken log2 fold change” value was -0.00455. RRIRFRPPRLPRPRPRPGGYPRP: the “shrunken log2 fold change” value was determined as 0.0294. As for RRIRCRPPRLPRPRPRPNKTPRP, the “shrunken log2 fold change” value is -0.0276. Consider RRIRVRPPRLPRPRPRPAAWPRP, for which the “shrunken log2 fold change” value stood at 0.136. The figure for RRIRLRPPRLPRPRPRPHYVPRP is -0.169. The figure for RRIRLRPPRLPRPRPRPGHKPRP is -0.275; for RRIRWRPPRLPRPRPRPGPNPRP it is 0.194. On to RRIRERPPRLPRPRPRPNYSPRP, for which the “shrunken log2 fold change” value is -0.63.

As for RRIRMRPPRLPRPRPRPESYPRP, the “shrunken log2 fold change” value was -0.00254.

As for RRIRPRPPRLPRPRPRPLMKPRP, the “shrunken log2 fold change” value was -0.181. The figure for RRIRMRPPRLPRPRPRPLSTPRP is 0.0164; for RRIRIRPPRLPRPRPRPWNSPRP it is -0.592.

With RRIRYRPPRLPRPRPRPTVVPRP, the “shrunken log2 fold change” value is -0.477. The figure for RRIRFRPPRLPRPRPRPRQVPRP is -0.331. Then RRIRERPPRLPRPRPRPVMEPRP, with -0.0566. Consider RRIRFRPPRLPRPRPRPYSAPRP, for which the “shrunken log2 fold change” value was -1.11. Then RRIRPRPPRLPRPRPRPDPHPRP, with 0.0782; and RRIRGRPPRLPRPRPRPWCNPRP, with -0.276. The figure for RRIRVRPPRLPRPRPRPRLVPRP is 1.56.
